Results from patent publication US11472855, “RNA-binding protein” (Panitch Schwarze Belisario & Nadel LLP).

How the values were obtained:
hPUF_MT(R3→R5, R4→R6) = biological target: T1, hPUF_MT(R3→R5, R4→R6); assay: EMSA; binds U (R2 position) >> C; conditions: label: Alexa680 at 5' and 3'
T1 chain: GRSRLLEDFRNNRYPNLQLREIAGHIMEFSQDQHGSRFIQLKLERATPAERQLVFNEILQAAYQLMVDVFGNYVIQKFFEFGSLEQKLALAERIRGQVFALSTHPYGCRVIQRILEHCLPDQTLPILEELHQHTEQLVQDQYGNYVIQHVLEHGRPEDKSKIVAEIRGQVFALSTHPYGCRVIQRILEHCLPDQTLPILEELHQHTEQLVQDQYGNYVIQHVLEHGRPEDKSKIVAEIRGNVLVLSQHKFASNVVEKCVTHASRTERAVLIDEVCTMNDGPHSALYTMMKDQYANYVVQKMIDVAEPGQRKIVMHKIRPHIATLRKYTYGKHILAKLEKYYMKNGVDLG
Experimental: (§1) Each purified protein was diluted to a desired concentration with Binding Buffer, mixed with a binding buffer and Ribonuclease Inhibitor, Cloned (Invitrogen), and then, mixed with the RNA probe at a final concentration of 0.5 nM. […] A binding reaction was performed at 4° C. for 30 min. Subsequently, the solution was gently mixed by pipetting. A binding reaction was performed again at 4° C. for […].
The solution obtained after the binding reaction was applied to 6% a non-denaturing polyacrylamide gel, followed by electrophoresis at 4° C. and 200 V. When the electrophoresis marker (2 μL of 6×Dye+10 μL of 1×binding buffer) moved by 0.5 cm, the voltage was changed to 100 V, and electrophoresis was continuously performed until the electrophoresis marker moved by 3 cm. Finally, RNA was detected with Odyssey.

hPUF_MT(R4→R6) = biological target: T2, hPUF_MT(R4→R6) (UniProt Q14671 SEQ:1-349); assay: EMSA; comparable to WT; conditions: label: Alexa680 at 5' and 3'
T2 chain: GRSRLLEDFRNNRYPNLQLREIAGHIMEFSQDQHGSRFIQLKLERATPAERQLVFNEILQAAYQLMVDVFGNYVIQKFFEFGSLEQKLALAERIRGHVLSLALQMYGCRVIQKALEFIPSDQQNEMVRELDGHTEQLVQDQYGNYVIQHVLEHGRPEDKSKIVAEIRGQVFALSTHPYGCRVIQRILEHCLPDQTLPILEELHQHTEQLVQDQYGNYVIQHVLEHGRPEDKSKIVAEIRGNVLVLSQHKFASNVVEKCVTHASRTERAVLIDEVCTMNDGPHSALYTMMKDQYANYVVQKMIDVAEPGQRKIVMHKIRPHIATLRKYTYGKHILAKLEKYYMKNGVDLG
Experimental: (§2) An RNA probe (OTS-1511) containing a target sequence fluorescence-labeled with Alexa680 at both ends thereof was synthesized.
as §1

hPUF_MT(R3→R5) = biological target: T3, hPUF_MT(R3→R5) (UniProt Q14671 SEQ:1-349); assay: EMSA; comparable to WT; conditions: label: Alexa680 at 5' and 3'
T3 chain: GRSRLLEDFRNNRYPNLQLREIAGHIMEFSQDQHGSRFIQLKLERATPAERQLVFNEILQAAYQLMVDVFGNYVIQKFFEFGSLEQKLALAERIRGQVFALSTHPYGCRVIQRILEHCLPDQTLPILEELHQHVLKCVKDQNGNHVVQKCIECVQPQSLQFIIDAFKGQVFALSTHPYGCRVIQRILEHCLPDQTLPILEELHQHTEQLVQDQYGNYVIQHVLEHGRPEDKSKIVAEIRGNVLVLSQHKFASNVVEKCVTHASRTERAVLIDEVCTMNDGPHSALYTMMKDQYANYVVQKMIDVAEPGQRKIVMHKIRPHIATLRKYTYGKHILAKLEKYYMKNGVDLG
Experimental: as §2, §1

hPUF_MT(905A) = hPUF_MT(905A) (UniProt Q14671 SEQ:1-349, F905A); assay: EMSA; not significantly affected; conditions: tags: MBP; label: Alexa680 at 5' and 3'
Experimental: as §2, §1

Measured: binding result

CCAGAAUUGUAUAUAUUCG (ssRNA) [OTS-1511]
binds: all assays above
